The results in this text go back to article PMC2696559.

This data set deals with histone H2b (human, UniProt Q16778 1-126). Description: EMSA. For orientation: Mobility shift assays separate free from complexed probe on a gel.

As for GGAGGAGGAGGAGGAG (ssDNA) [16-mer oligonucleotide], the binding result is on record as “binds”.
